This is an account of results in patent US7528244.

The target in this data set is T1, caspase-3, P42574.
T1 chain: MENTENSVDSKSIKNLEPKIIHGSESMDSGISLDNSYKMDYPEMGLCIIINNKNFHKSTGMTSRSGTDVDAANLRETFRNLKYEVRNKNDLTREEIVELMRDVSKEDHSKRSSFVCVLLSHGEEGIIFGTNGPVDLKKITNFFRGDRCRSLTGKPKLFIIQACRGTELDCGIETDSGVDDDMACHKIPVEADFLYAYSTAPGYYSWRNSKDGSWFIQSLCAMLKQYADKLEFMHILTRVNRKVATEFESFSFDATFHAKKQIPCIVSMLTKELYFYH

B1: caspase-8 (217-479) (protein)
chain: SESQTLDKVYQMKSKPRGYCLIINNHNFAKAREKVPKLHSIRDRNGTHLDAGALTTTFEELHFEIKPHDDCTVEQIYEILKIYQLMDHSNMDCFICCILSHGDKGIIYGTDGQEAPIYELTSQFTGLKCPSLAGKPKVFFIQACQGDNYQKGIPVETDSEEQPYLEMDLSSPQTRYIPDEADFLLGMATVNNCVSYRNPAEGTWYIQSLCQSLRERCPRGDDILTILTEVNYEVSNKDDKKNMGKQMPQPTFTLRKKLVFPSD
With B1, the “processing of 35S-labeled caspase-3 precursor by in vitro translated protein” value is “In vitro translated Casper (192-480) could not process caspase-3, whereas in vitro translated caspase-8 (217-479) could”.
